Reference: the supplement of paper PMC10567573

B1: TRIM35 (parent)
chain: WEVQVSPTCPVCKDRASPADLRTN

Variants of: B1
Assay: protein stability index of a GFP-peptide fusion (GPS, HEK-293T) (PSI 1-6); higher = more stable
Conditions: c terminus: a fixed tail appended
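Note: lentivirally expressed fusions sorted by FACS into six bins by GFP to DsRed ratio, PSI derived from sequencing read proportions per bin multiplied by bin number.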

Protein stability index, by site and new letter:
R15: E 3.43, F 2.07, L 2.47, S 3.07, C 2.26, M 2.04, H 2.46, Q 2.54, V 2.74, Y 2.34, I 2.48, T 2.54, P 3.31, N 2.48
A16: Y 2.08, Q 2.96, N 1.84, V 2.49, G 2.15, W 1.85, I 1.28, P 2.29, D 2.26, K 2.8, S 2.42, F 1.91, H 2.71, L 1.82, T 2.79, C 1.41, E 2.78
V5: T 3.03, W 2.4, Q 3.37, S 2.94, Y 2.58
T8: I 2, P 2.92, G 2.48, V 1.66, L 1.88, A 3.17, D 3.42, S 2.37, Q 2.33, N 2.79, E 3.07, W 2.56, F 1.85, R 1.7, K 2.39
C9: H 3.74, G 3.97, P 3.11, D 4.9, I 3.53, W 2.52, M 3.15, A 4.38, R 4.04, K 4.72, N 4.34, V 4.11, T 3.94, F 2.85, E 4.49, L 1.98, Q 4.56, Y 3.5
K13: V 2.7, S 2.19, C 1.72, M 1.94, Y 2.05, G 1.7, T 2.31, P 3.74, F 1.94, E 2.71, W 2.09, R 1.46, L 3.25, I 2.17, D 2, Q 2.66, N 2.39
S6: G 2.54, K 1.85, D 2.84, W 1.94, P 2.87, Q 2.53, N 3.46, I 2.12, A 1.87, M 1.89, C 2.63, Y 2.07, R 2.5, H 3.03, T 2.22, F 2.4, E 1.71, L 2.6
P10: K 2.79, H 2.81, Y 2.29, I 2.34, A 1.25, L 2.65, E 2.23, F 2.89, M 2.46, N 2.58, V 2.02, Q 3.01, R 2.42, C 3.25, S 3.32, T 2.38, W 2.51
S17: T 2.05, H 2.08, D 3.31, M 2.01, P 2.83, F 2.19, L 2.75, E 3.89, A 2.48, I 2.66, V 2.23, N 2.51, C 1.81, Q 2.84, W 3.4, Y 4.01
P18: R 3.2, G 2.51, S 2.51, D 1.99, V 2.57, Q 2.13, F 1.95, A 2.04, Y 2.15, H 1.6, I 2.87, K 2.52, N 2.39, T 2.57, M 1.99, W 1.39
C12: G 3.7, A 4.59, D 4.14, E 4.81, M 4.44, T 4.54, F 3.29, L 3.8, V 3.89, H 3.46, P 3.86, I 3.4, K 3.88, Q 3.9
